Our source for the Km values is publication PMC9049628.

Substrate in the series: NCCCC[C@H](N)C(=O)O
Put plainly: purified protein. The following applies: 5 mM acetyl-CoA, 50 mM Tris-HCl pH 10.0, 40 °C, 0.65 mM DTNB.

B1: ShKAT (Salinicoccus halodurans) (protein)
chain: MWQTKKFNELSLSEIEQIFRLRQSIFIIEQQSYFADIDGKDTEAIHIFNKENNIIWAYCRILIYDEKVILGRVTVHSDKRGNGNGRELLNTALKYLKENYPDKFVQIVAMSYLKDFYKSYGFKSISEVYIMDDHPHEDMILKH
As usually defined, the Km is the substrate concentration at which the rate is half of its maximum. For the protein B1, the Km came out at 1890 µM.
